Experimental data taken from PMC12720421, “Disordered N‐termini enhance the thermostability of SGNH‐hydrolase family polyesterases” (Protein Science : A Publication of the Protein Society, 2025).
Several values for one entry are separate records, joined by “and”; a condition that tells them apart may be missing. Equal entries are not always repeated.

Experiments:
Ft_EST = target: T1, Ft_EST (Fontimonas thermophila, UniProt A0A1I2JG86); experiment: pNP release at […] nm, specific activity; assay type: biochemical; conditions: 50 mM Tris pH 8.5, 5% methanol
T1 construct: gene SAMN04488120_10748
T1 sequence (A0A1I2JG86 25-217): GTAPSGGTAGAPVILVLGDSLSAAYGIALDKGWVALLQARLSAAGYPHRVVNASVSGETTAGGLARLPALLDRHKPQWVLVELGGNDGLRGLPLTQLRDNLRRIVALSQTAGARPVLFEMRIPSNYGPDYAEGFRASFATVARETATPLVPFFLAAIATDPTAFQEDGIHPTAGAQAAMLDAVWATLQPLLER

Pmt_EST = target: T2, Pmt_EST (Zestomonas thermotolerans, UniProt Z9LQW2KWT1); experiment: pNP release at […] nm, specific activity; assay type: biochemical; conditions: 50 mM Tris pH 8.5, 5% methanol
T2 sequence (Z9LQW2KWT1 41-245): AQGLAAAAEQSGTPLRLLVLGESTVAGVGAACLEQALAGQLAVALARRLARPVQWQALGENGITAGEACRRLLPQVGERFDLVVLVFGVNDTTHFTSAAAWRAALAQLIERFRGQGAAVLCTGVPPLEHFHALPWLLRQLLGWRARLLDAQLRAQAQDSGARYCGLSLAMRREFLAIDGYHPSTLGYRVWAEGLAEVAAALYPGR

[1] = target: PpEST from Pseudomonas oleovorans (Pseudomonas oleovorans); experiment: SEC; analytical SEC on a Superdex 200 Increase 10/300 GL column, with a BioRad Gel Filtration Standard; self-association of each purified esterase
[2] = target: Rp_EST from Rhodothermus profundi (Rhodothermus profundi); experiment: as above
[3] = system: CCCC(=O)Oc1ccc([N+](=O)[O-])cc1; experiment: purified protein; assay type: biochemical, Maribacter thermophilus; conditions: 50 mM Tris pH 8.0, room temperature, 5% methanol, 0.05-0.1 μM enzyme
purified protein [4] = substrate: CCCC(=O)Oc1ccc([N+](=O)[O-])cc1; experiment: purified protein; assay type: biochemical, Rhodothermus profundi; conditions: 50 mM Tris pH 8.0, room temperature, 5% methanol, 0.05-0.1 μM enzyme
purified protein [5] = substrate: CCCC(=O)Oc1ccc([N+](=O)[O-])cc1; experiment: purified protein; assay type: biochemical, Altericroceibacterium indicum; conditions: 50 mM Tris pH 8.0, room temperature, 5% methanol, 0.05-0.1 μM enzyme
purified protein [6] = substrate: CCCC(=O)Oc1ccc([N+](=O)[O-])cc1; experiment: purified protein; assay type: biochemical, Ectopseudomonas oleovorans; conditions: 50 mM Tris pH 8.0, room temperature, 5% methanol, 0.05-0.1 μM enzyme
purified protein [7] = substrate: CCCC(=O)Oc1ccc([N+](=O)[O-])cc1; experiment: purified protein; assay type: biochemical, Chloracidobacterium thermophilum; conditions: 50 mM Tris pH 8.0, room temperature, 5% methanol, 0.05-0.1 μM enzyme

CCCC(=O)Oc1ccc([N+](=O)[O-])cc1 [pNP-butyrate] was tested, and the “pNP release at 410 nm, specific activity” value (Ft_EST) was “showed a clear preference for mid‐chain length esters, particularly pNP‐butyrate (C4)” and the “pNP release at 410 nm, specific activity” value (Pmt_EST) was “showed a clear preference for mid‐chain length esters, particularly pNP‐butyrate (C4)”.

Work on “PpEST from Pseudomonas oleovorans (enzyme)” yielded a stoichiometry N [1] of 2.

In the case of “Rp_EST from Rhodothermus profundi (enzyme)”, the stoichiometry N [2] is reported as 2 and 4.

Mt_EST (Maribacter thermophilus) showed a Km [3] of 453 ± 81 µM, a kcat [3] of 54.4 ± 4.4 s⁻¹ and a kcat/Km [3] of 120000 M⁻¹ s⁻¹.

B1: shRp_EST (Rhodothermus profundi) (protein)
chain: ITVLVLGNSLAAGYGLSPDEAFPAILQRKVDSLGWPVRILNAGLSGETSAGGLRRIDWLLRERIDVLILELGANDGLRGIDPEVTRQNLQGIIDKVRARYPEADIILAGMQLPPNLGPAYTAAFRALYPELARANNAYLIPFLLEGVGGVPELNQADGIHPTAEGQRIVAENVWRVLRPVLERRLGLA
notes: N-terminal extension truncated to align with AlinE4 and PpEST (borders not in main text), C-terminal 6xHis tag, E. coli, monomer
With B1 the Km (purified protein [4]) was 257 ± 43 µM, the kcat (purified protein [4]) was 25 ± 1.6 s⁻¹ and the kcat/Km (purified protein [4]) was 97000 M⁻¹ s⁻¹.

B2: AlinE4 (Altericroceibacterium indicum) (protein)
chain: SMGESRVILAFGDSLFAGYGLDKGESYPAKLETALRSHGINARIINAGVSGDTTAAGLQRIKFVLDSQPDKPELAIVELGGNDLLRGLSPAEARQNLSGILEELQRRKIPILLMGMRAPPNLGAKYQREFDGIYPYLAEKYDAKLVPFFLEAVADRPDLIQKDHVHPTARGVEELVSATSNAVAKALPAKK
B2 gave a Km (purified protein [5]) of 194 ± 55 µM, a kcat (purified protein [5]) of 15 ± 1.4 s⁻¹ and a kcat/Km (purified protein [5]) of 77000 M⁻¹ s⁻¹.

B3: PpEST (Ectopseudomonas oleovorans CECT 5344) (protein)
chain: GTLLVVGDSISAAFGLDSRQGWVALLEKRLSEEGFEHSVVNASISGDTSAGGAARLSALLAEHKPELVIIELGGNDGLRGQPPAQLQQNLASMVEQSQQAGAKVLLLGMKLPPNYGVRYTTAFAQVFTDLAEQKQVSLVPFFLEGVGGVPGMMQADGIHPAEAAQEILLDNVWPTLKPML
B3 gave a Km (purified protein [6]) of 242 ± 49 µM, a kcat (purified protein [6]) of 14 ± 1 s⁻¹ and a kcat/Km (purified protein [6]) of 58000 M⁻¹ s⁻¹.

B4: Ct_EST (Chloracidobacterium thermophilum B) (protein)
chain: GGCSRTGTEAPENLPVLAPAPTDAAPTARPRIVVLGDSLTAGFGLPREASYPTVLQKKLDAAGLNYQVINAGISGDTSAGGVERLDWSLDGDVRIVILALGANDGLRGLPLTQMEANLRTIIERARARGAQVILAGLKAPAEAGPDYGAQFEAVYRKLAQQYRLPLIPSLLEGVAGREELNQEDGIHPNARGAAIVADNVWKVLEPVARQQLAQSQSNPDAPPAAKPAGAR
Work on B4 yielded a Km (purified protein [7]) of 791 ± 178 µM, a kcat (purified protein [7]) of 38.5 ± 4.8 s⁻¹ and a kcat/Km (purified protein [7]) of 49000 M⁻¹ s⁻¹.

B5: shCt_EST (Chloracidobacterium thermophilum B) (protein)
chain: TARPRIVVLGDSLTAGFGLPREASYPTVLQKKLDAAGLNYQVINAGISGDTSAGGVERLDWSLDGDVRIVILALGANDGLRGLPLTQMEANLRTIIERARARGAQVILAGLKAPAEAGPDYGAQFEAVYRKLAQQYRLPLIPSLLEGVAGREELNQEDGIHPNARGAAIVADNVWKVLEPVARQQLAQSQSNPDAPPAAKPAGAR
notes: as for B1
B5 gave a Km (purified protein [7]) of 646 ± 139 µM, a kcat (purified protein [7]) of 33.3 ± 3.7 s⁻¹ and a kcat/Km (purified protein [7]) of 52000 M⁻¹ s⁻¹.

B6: Rp_EST (Rhodothermus profundi) (protein)
chain: QDTSKSSASSSEGSPDTTAKTPTHAARAAQPITVLVLGNSLAAGYGLSPDEAFPAILQRKVDSLGWPVRILNAGLSGETSAGGLRRIDWLLRERIDVLILELGANDGLRGIDPEVTRQNLQGIIDKVRARYPEADIILAGMQLPPNLGPAYTAAFRALYPELARANNAYLIPFLLEGVGGVPELNQADGIHPTAEGQRIVAENVWRVLRPVLERRLGLA
B6 showed a Km (purified protein [4]) of 246 ± 72 µM, a kcat (purified protein [4]) of 12 ± 1.3 s⁻¹ and a kcat/Km (purified protein [4]) of 49000 M⁻¹ s⁻¹.
